Source: the Human Domainome abundance scans (Beltran et al. 2025)
± gives the uncertainty stated by the source.

B1: Ankyrin repeat and SAM domain-containing protein 6, residues 774 to 836; numbered along this chain, Q68DC2 (parent)
chain: DEDELTGILKKLSLEKYQPIFEEQEVDMEAFLTLTDGDLKELGIKTDGSRQQILAAISELNAG

Variants of: B1
Test: abundance fitness (aPCA) (normalised: wild type 0, dead -1); higher = more abundant; growth selection in yeast, the domain comes from the species named
Conditions: Homo sapiens

Row | Variant | abundance fitness
1 | DEDELTGILKKLSLRKYQPIFEEQEVDMEAFLTLTDGDLKELGIKTDGSRQQILAAISELNAG [E15R] | -0.53 ± 0.043
2 | DEDELTGILKKLSLKKYQPIFEEQEVDMEAFLTLTDGDLKELGIKTDGSRQQILAAISELNAG [E15K] | -0.869 ± 0.35
3 | DEDELTGILKKLSLAKYQPIFEEQEVDMEAFLTLTDGDLKELGIKTDGSRQQILAAISELNAG [E15A] | -0.271 ± 0.062
4 | DEDELTGILKKLSLLKYQPIFEEQEVDMEAFLTLTDGDLKELGIKTDGSRQQILAAISELNAG [E15L] | -0.185 ± 0.065
5 | DEDELTGILKKLSLWKYQPIFEEQEVDMEAFLTLTDGDLKELGIKTDGSRQQILAAISELNAG [E15W] | -0.657 ± 0.079
6 | DEDELTGILKKLSLSKYQPIFEEQEVDMEAFLTLTDGDLKELGIKTDGSRQQILAAISELNAG [E15S] | -0.143 ± 0.052
7 | DEDELTGILKKLSLQKYQPIFEEQEVDMEAFLTLTDGDLKELGIKTDGSRQQILAAISELNAG [E15Q] | -0.037 ± 0.065
8 | DEDELTGILKKLSLMKYQPIFEEQEVDMEAFLTLTDGDLKELGIKTDGSRQQILAAISELNAG [E15M] | -0.123 ± 0.085
9 | DEDELTGILKKLSLFKYQPIFEEQEVDMEAFLTLTDGDLKELGIKTDGSRQQILAAISELNAG [E15F] | -0.505 ± 0.12
10 | DEDELTGILKKLSLNKYQPIFEEQEVDMEAFLTLTDGDLKELGIKTDGSRQQILAAISELNAG [E15N] | -0.492 ± 0.36
11 | DEDELTGILKKLSLIKYQPIFEEQEVDMEAFLTLTDGDLKELGIKTDGSRQQILAAISELNAG [E15I] | -0.323 ± 0.084
12 | DEDELTGILKKLSLCKYQPIFEEQEVDMEAFLTLTDGDLKELGIKTDGSRQQILAAISELNAG [E15C] | -0.343 ± 0.057
13 | DEDELTGILKKLSLVKYQPIFEEQEVDMEAFLTLTDGDLKELGIKTDGSRQQILAAISELNAG [E15V] | -0.36 ± 0.06
14 | DEDELTGILKKLSLGKYQPIFEEQEVDMEAFLTLTDGDLKELGIKTDGSRQQILAAISELNAG [E15G] | -0.433 ± 0.05
15 | DEDELTGILKKLSLDKYQPIFEEQEVDMEAFLTLTDGDLKELGIKTDGSRQQILAAISELNAG [E15D] | -0.158 ± 0.076
16 | DEDELTGILKKLSLPKYQPIFEEQEVDMEAFLTLTDGDLKELGIKTDGSRQQILAAISELNAG [E15P] | -0.687 ± 0.068
17 | DEDELTGILKKLSLTKYQPIFEEQEVDMEAFLTLTDGDLKELGIKTDGSRQQILAAISELNAG [E15T] | -0.21 ± 0.11
18 | DEDELTGILKKLSLEKNQPIFEEQEVDMEAFLTLTDGDLKELGIKTDGSRQQILAAISELNAG [Y17N] | -0.344 ± 0.14
19 | DEDELTGILKKLSLEKKQPIFEEQEVDMEAFLTLTDGDLKELGIKTDGSRQQILAAISELNAG [Y17K] | -0.426 ± 0.072
20 | DEDELTGILKKLSLEKPQPIFEEQEVDMEAFLTLTDGDLKELGIKTDGSRQQILAAISELNAG [Y17P] | -0.756 ± 0.045
21 | DEDELTGILKKLSLEKHQPIFEEQEVDMEAFLTLTDGDLKELGIKTDGSRQQILAAISELNAG [Y17H] | -0.505 ± 0.14

Row | Variant | abundance fitness
22 | DEDELTGILKKLSLEKDQPIFEEQEVDMEAFLTLTDGDLKELGIKTDGSRQQILAAISELNAG [Y17D] | -0.322 ± 0.091
23 | DEDELTGILKKLSLEKGQPIFEEQEVDMEAFLTLTDGDLKELGIKTDGSRQQILAAISELNAG [Y17G] | -0.399 ± 0.054
24 | DEDELTGILKKLSLEKMQPIFEEQEVDMEAFLTLTDGDLKELGIKTDGSRQQILAAISELNAG [Y17M] | 0.031 ± 0.06
25 | DEDELTGILKKLSLEKWQPIFEEQEVDMEAFLTLTDGDLKELGIKTDGSRQQILAAISELNAG [Y17W] | -0.043 ± 0.062
26 | DEDELTGILKKLSLEKAQPIFEEQEVDMEAFLTLTDGDLKELGIKTDGSRQQILAAISELNAG [Y17A] | -0.561 ± 0.064
27 | DEDELTGILKKLSLEKEQPIFEEQEVDMEAFLTLTDGDLKELGIKTDGSRQQILAAISELNAG [Y17E] | -0.026 ± 0.068
28 | DEDELTGILKKLSLEKFQPIFEEQEVDMEAFLTLTDGDLKELGIKTDGSRQQILAAISELNAG [Y17F] | -0.045 ± 0.039
29 | DEDELTGILKKLSLEKCQPIFEEQEVDMEAFLTLTDGDLKELGIKTDGSRQQILAAISELNAG [Y17C] | -0.255 ± 0.096
30 | DEDELTGILKKLSLEKVQPIFEEQEVDMEAFLTLTDGDLKELGIKTDGSRQQILAAISELNAG [Y17V] | -0.355 ± 0.063
31 | DEDELTGILKKLSLEKQQPIFEEQEVDMEAFLTLTDGDLKELGIKTDGSRQQILAAISELNAG [Y17Q] | -0.339 ± 0.088
32 | DEDELTGILKKLSLEKLQPIFEEQEVDMEAFLTLTDGDLKELGIKTDGSRQQILAAISELNAG [Y17L] | -0.127 ± 0.05
33 | DEDELTGILKKLSLEKTQPIFEEQEVDMEAFLTLTDGDLKELGIKTDGSRQQILAAISELNAG [Y17T] | -0.509 ± 0.081
34 | DEDELTGILKKLSLEKSQPIFEEQEVDMEAFLTLTDGDLKELGIKTDGSRQQILAAISELNAG [Y17S] | -0.49 ± 0.059
35 | DEDELTGILKKLNLEKYQPIFEEQEVDMEAFLTLTDGDLKELGIKTDGSRQQILAAISELNAG [S13N] | 0.039 ± 0.1
36 | DEDELTGILKKLWLEKYQPIFEEQEVDMEAFLTLTDGDLKELGIKTDGSRQQILAAISELNAG [S13W] | -0.472 ± 0.072
37 | DEDELTGILKKLPLEKYQPIFEEQEVDMEAFLTLTDGDLKELGIKTDGSRQQILAAISELNAG [S13P] | -0.736 ± 0.078
38 | DEDELTGILKKLYLEKYQPIFEEQEVDMEAFLTLTDGDLKELGIKTDGSRQQILAAISELNAG [S13Y] | -0.623 ± 0.12
39 | DEDELTGILKKLQLEKYQPIFEEQEVDMEAFLTLTDGDLKELGIKTDGSRQQILAAISELNAG [S13Q] | 0.042 ± 0.053
40 | DEDELTGILKKLRLEKYQPIFEEQEVDMEAFLTLTDGDLKELGIKTDGSRQQILAAISELNAG [S13R] | -0.04 ± 0.048
41 | DEDELTGILKKLVLEKYQPIFEEQEVDMEAFLTLTDGDLKELGIKTDGSRQQILAAISELNAG [S13V] | -0.567 ± 0.094
42 | DEDELTGILKKLTLEKYQPIFEEQEVDMEAFLTLTDGDLKELGIKTDGSRQQILAAISELNAG [S13T] | -0.127 ± 0.051
